Measured values from the nanobody polyreactivity screen of Harvey et al. (2022).

Assay: yeast display, Sf9 membrane polyspecificity reagent, FACS + sequencing; frameworks hold sequencing errors
Summary of the method: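 Polyreactivity labels are assigned by the sorting gate from which each nanobody was recovered. The gates were low and high (top ~1%), set on anti-HA fluorescence for expression and streptavidin fluorescence for reagent binding. Before sorting, galactose-induced (36–48 hours) yeast display cells were stained for 1 hour at 4 °C with 10% biotinylated, detergent-solubilized Sf9 membrane reagent.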

| Sequence | polyreactivity (PSR sort gate) |
| --- | --- |
| QVQLVESGGGLVQAGGSLRLSCADSGFTFIKYAMGWYRQAPGKEREFVATISWNGGNTYYADSVKGRFTISRDNAKNTVYLQMNSLKPEDTAVYYCAARVKYRTRGGTVVSYDYWGQGPQVTVSS | high polyreactivity |
| QVQLVESGGGLVQAGGSLRLSCADSGFTFRYNAMGWYRQAPGKERELVAAISRSGGRTYYADSVKGRFTISRDNAKNTVYLQMNSLKPEDSAVYYCAAVAARITGYGYWGQGTQVTVSS | high polyreactivity |
| QVQLVESGGGLVQAGGSLRLSCADSGFTFVAYAMGWYRQAPGKERELVAVISRGGSTYYADSVKGRFTISRDNAKNTVYLQMNSLKPEDTAVYYCAATYIHSYGKFYYWGQGTQLTVSS | low polyreactivity |
| QVQLVESGGGLVQAGGSLRLSCADSGFTFYYSAMGWYRQAPGKEREVVAAISWGGGTTYYADSVKGRFTISRDNAKNTVYLQMNSLKPEDTAVFYCNAASSLPGYDYWGQGTQVTVSS | high polyreactivity |
| QVQLVESGGGLVQAGGSLRLSCADSGIIFYVYAMGWYRPAPGKEREWVAAISSGGRTKYADSVKGRFTISRDNAKNTVYLQMNSLKPEDTAVYYCAAKSVRRRLGYWGQGTQVTVSS | high polyreactivity |
| QVQLVESGGGLVQAGGSLRLSCADSGIISIFNVIGWYRQAPGKERELVASITGRGGSTFYADSVKGRFTISRDNAKNTVYLQMNILKPEDTAVYYCATDTGYTYPVTGLYDYWGQGTQVTVSS | low polyreactivity |
| QVQLVESGGGLVQAGGSLRLSCADSGITFFTYAMGRYRQAPGKERELVAAISGSGGSTYYADYVKWRFTISRDNAKNTVYLQMNSLKPEDTEVYYCAAEYTYGSPYDYWGQGTQVTVSS | low polyreactivity |
| QVQLVESGGGLVQAGGSLRLSCADSGITFGLYAMGWYRQAPGKERELVAAISSSGGRTYYADSVKGRFTISRDIAKKTVYLQMYSLKPEDTAVYVCATDTDGFAANRPAGDGDWGQGTQVTVSS | high polyreactivity |
| QVQLVESGGGLVQAGGSLRLSCADSGITFWRYAMGWYRHAPGKERELVAAISWSGGNTYYADSVKGRFTISRDNAKNTVYLQMNSLKPEDTAVYYCATSRTYVIYDYWGQGTQVTVSS | low polyreactivity |
| QVQLVESGGGLVQAGGSLRLSCADSGLIFGYYAMGGYRQAPGKERELVAAITSSGTSTYYADSVKGRFTISRDNAKNTVYLQMNSLKPEDTAVYYCAAQYIGKKRFNYWGQGTQVTVSS | high polyreactivity |
| QVQLVESGGGLVQAGGSLRLSCADSGLTFSVYTMGWYRQAPGKERELVAAITTSGGRTYYADSVKGRFTISRDNAKNTVYLQKNSLKPEDTAVYYCAAVRTGDTTGTMGYWGQGTQVTVSS | high polyreactivity |
| QVQLVESGGGLVQAGGSLRLSCADSGNIFSWYAMGWYRQAPGKERELVAAITWSGGTTYYADSVKGRFTISRDNAKNTVYLQMNSLKPEDTAVYYCAVFSRYRSGYYSWGQGTQVTVSS | high polyreactivity |
| QVQLVESGGGLVQAGGSLRLSCADSGRIFRDYAMGWYRQAPGKERELVAAISRSGGSTYYADSVKGRFTISRDNAKNTVYLQVNSLKPEDTAVFYCAAKYYYGGNGYWGQGTQVTVSS | low polyreactivity |
| QVQLVESGGGLVQAGGSLRLSCADSGRIFYSYTRGWYRPAPGKERELVAAIRKSGGRTYYADSVKGRFTISRDNAKNTVYLQMNSLKPEDTAVYYCATTNYELSYYYWGQGTQVTVSS | high polyreactivity |
| QVQLVESGGGLVQAGGSLRLSCADSGRIIYLNAMGLYRQAPGKERELVAAITRSAASTHYADSVKGRFTISRDNAKNTVYLQMNSLKPEDTAVYYCNARGYPKSWRYSRGYEYWGQGTQVTVSS | low polyreactivity |
| QVQLVESGGGLVQAGGSLRLSCADSGRTFKSYAMGWYRQAPGKERELVAAISSSGGRTFYADSVKGRFTISRDNAKNTVYLQMNSLKPEDTAVYYCNARGFYRGYTYYYWGQGTQVTVSS | high polyreactivity |
| QVQLVESGGGLVQAGGSLRLSCADSGRTFQRHARGWYRKAPGKEREFVAAISKSGGRTYYADSVKGRFTISRDTAKNTVSLQMNSLKPEDTAVYYCNRGSTHDLSHPELYGYWGQGTQVTVSS | high polyreactivity |
| QVQLVESGGGLVQAGGSLRLSCADSGRTFVSNAMGWYRQAPGKERELVAAISGSGGITYYADSVKGRFTISRDNAKNTVYLQMNSLKPEDTAVYYCNADSSGWFPFDYWGQGTQVTVSS | low polyreactivity |
| QVQLVESGGGLVQAGGSLRLSCADSGRTFWGYSMGCYRQAPGKERELVAAITWNGGRTYYADSVKGRFTISRDNAKNTVYLQMNSLKPEDTAVYYCAAGYPRFGYDYWGQGTQVTVSS | high polyreactivity |
| QVQLVESGGGLVQAGGSLRLSCADSGRTFWSNAMGWYRQAPGKERELVARIDSTYYADSVKGRFTISRDNAKNTVYLQMNSLKPEDTAVYYCNADTIYYAGDFRYDYWGQGTQVTVSS | low polyreactivity |
| QVQLVESGGGLVQAGGSLRLSCADSGRTFYGNARGWYRQAPGKERELVAAISISGGSTYYADSVKGRFTISRDNAKNTVYLQMNSLKPEDTAVYYCNAQEYYYYPYVYDSDYWGQGTQVTVSS | low polyreactivity |
| QVQLVESGGGLVQAGGSLRLSCADSGRTFYYYAMGWYRQAPGKEREFVAAITTRGGSTYYADSVKGRFTISRDNAKNTVYLQMNSLTPEDTAVYYCAARYTGRQGVYKTYYYWGQGTQVTVSS | high polyreactivity |

| Sequence | polyreactivity (PSR sort gate) |
| --- | --- |
| QVQLVESGGGLVQAGGSLRLSCADSGRTIGLNGMGWYRQAPGKERELVAGISWTGGSTNYADSVKGRFTFSRDNEKNTVYLQINSLKPEDTAVYYCAADFVYYVVNDFGWSYAYEYWGQGTQVTVSS | low polyreactivity |
| QVQLVESGGGLVQAGGSLRLSCADSGSIFDQYTMGWYRQAPGKERELVAGISSGGITNYADSVKGRFTISRDNAKNTVYLQMNSLKPEDTAVYYCAADNWYLAEYDYWGQGTQVTVSS | low polyreactivity |
| QVQLVESGGGLVQAGGSLRLSCADSGSIFEFNTMGWYRQAPGKERELVAAISSADTTNYADSVKGRFTISRDNAKNTVYLQMNSLKPEDTAVYYCNKELHLSATLRVLGFDYWGQGTQVTVSS | low polyreactivity |
| QVQLVESGGGLVQAGGSLRLSCADSGSIFFPYAMGWYRQAPGKERYLVAAISSGTSTYYADSVKGRFTISRDNAKNTVYLQMNSLKPEDTAVFYCNARHRRGRFTHDYDYWGQGTQVTVSS | low polyreactivity |
| QVQLVESGGGLVQAGGSLRLSCADSGSIFGPYAMGWYRQAPGKEREFVAAISRSGTRTNYADSVKGRFTISRDNAKNTVYLQMNSLKPEDTAVYYCNARYVSASRNRGKSRYDYWGLGTQVTVSS | high polyreactivity |
| QVQLVESGGGLVQAGGSLRLSCADSGSIFLIYAMGWYRQAPGKERELVATINRGDNTYYADSVKGRFTISRDNAKITVYLQMYSLKPEDTADGYWGQGTQVTGSS | low polyreactivity |
| QVQLVESGGGLVQAGGSLRLSCADSGSIFLRYAMGWYRQAPGKERELVAAISCRGGSTYYADSVKGRFTISRDNAKNTVYLQMNSQKPEDTAVYYCAAYRGRSLEYDYWGQGTQVNVSS | high polyreactivity |
| QVQLVESGGGLVQAGGSLRLSCADSGSIFTSNGMGWYRHAPGKERELVAAITSGTSTYYADSVKGRFTISRDNAKNTVYLQMNSLKPEDTAVYYCAAGRWWVYRYARYYYWGQGTQVTVSS | high polyreactivity |
| QVQLVESGGGLVQAGGSLRLSCADSGSIFVAYAMRWYRPAPGKERELVAAISSSGGTTYYADSVKGRFTISRDNAKNTVYLQMNSLKPEDTAVYYSAARDYKYYYWGQGTQVTVSS | high polyreactivity |
| QVQLVESGGGLVQAGGSLRLSCADSGSIFYVYAMGWYRQAPGKERELVATISSSAGSTYYADSVKGRFTISRDNAKNTVYLQMNSLKPEDTAVYYCNADSFLSWVYRYVYYGSGYWGQGTQVTVSS | low polyreactivity |
| QVQLVESGGGLVQAGGSLRLSCADSGSILIYNAMGWYRQAPGKERELVAGISRRGASTYYADSVKGRFTISRDNAKNTVSLQMNSLKQEDTAVYYCAALGKYIVAWSGDYWGQGTQVTVSS | low polyreactivity |
| QVQLVESGGGLVQAGGSLRLSCADSGSTFDSYAMGWYRQAPGKERELVASITSRGGRTYYADSVKGRFTISRDNAKNTVYLQMNSLKPEDTALYYCNAYRRNYYYYQRHGYWGQGTQVTVSS | high polyreactivity |
| QVQLVESGGGLVQAGGSLRLSCADSGSTFGFYAMGWYRKAPGKERELVAAISSSGSTYYADSVKGRFTISRDNAKNTVYLQMNILKPEDTAFYSCGAHPGYYDYDYWGQGTQVTVSS | low polyreactivity |
| QVQLVESGGGLVQAGGSLRLSCADSGSTFGLYAMGGYRQSPGKEREMVAAITWGGGSTYYADSVKVRFTISRDNAKNTVYFQMNSLKPEDTAVYYCAASPIYPVYRRHGYWGQGTQVTVSW | high polyreactivity |
| QVQLVESGGGLVQAGGSLRLSCADSGSTFLYYAIVWYRQAPGKERELVASITGSGSNTYYADSVKGRFTISRDNAKNTVYLQMNSLKPEDTAVYYCASDPQSDIPSWLWYWGEYDYWGQGTQVTVSS | low polyreactivity |
| QVQLVESGGGLVQAGGSLRLSCADSGSTFNIYAMGWYRQAPGKERELVAAISSGGTTYYADSVKGRFTISRDNAKNTVYLQMNSLKPEDTAVYYCAALTSSLPAYGYWGQGTQVTVSS | low polyreactivity |
| QVQLVESGGGLVQAGGSLRLSCADSGSTFPYYTMGWYRQAPGKEREFVAAISRSTGRTSYADSVKGRFTISRDNAKNTVYLQMNSVKPEDSAVYDCAVRWYYYRDDTIYVLGRYDYWGQGTQVSVSS | high polyreactivity |
| QVQLVESGGGLVQAGGSLRLSCADSGSTFYRNAMGWYRQAPGKERELVASINNRGSTYYADSVKGRFTISRDNAKNTVYLQMNRLKPEDTAVYYFAATESWDYDYWGQGTQVTVSS | low polyreactivity |
| QVQLVESGGGLVQAGGSLRLSCADSGSTIFGNAMGWYRQAPGKERELVAAISYSGDSTYYADSVKGRFTISRDNAMNTVYLQMNSLKPEDTAVYYCAAGFVIKYDFWGQGTQVTVSS | low polyreactivity |
| QVQLVESGGGLVQAGGSLRLSCADSGSTLRRNAMGWYRQAPGKERELVAAISRTGASTYYADSVKGRFTISRDNAKNTVYLQMNSLKPEDTAVYYCAARANYIFFGMDYWGQGTQVTVSS | high polyreactivity |
| QVQLVESGGGLVQAGGSLRLSCADSGSTLYRYAMGWYRQAPGKERELVDAISSAGSTHYADSVKGRFTISRDNAKNTVYLQMNSLKPEDTAVYYCNAVRKTFDYNYWGQGTQVTVSS | high polyreactivity |
